Measured values as given in patent US20180155451A1 (published 2018).

T1: FcγRIIa H (human, UniProt P12318 34-217)
T1 construct: extracellular domain; also called FcgRIIa H; FcγRIIa type H; not shown: His tag attached to the C terminus
T1 sequence (looked up): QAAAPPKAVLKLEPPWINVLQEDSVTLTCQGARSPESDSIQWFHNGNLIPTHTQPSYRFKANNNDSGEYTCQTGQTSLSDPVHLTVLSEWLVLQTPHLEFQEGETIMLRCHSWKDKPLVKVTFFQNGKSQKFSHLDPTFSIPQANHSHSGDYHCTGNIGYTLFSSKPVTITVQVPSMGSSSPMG

T2: FcγRIIb (human, UniProt P31994 43-217)
T2 construct: extracellular domain; also called FcgRIIb; 2b; not shown: His tag attached to the C terminus
T2 sequence (looked up): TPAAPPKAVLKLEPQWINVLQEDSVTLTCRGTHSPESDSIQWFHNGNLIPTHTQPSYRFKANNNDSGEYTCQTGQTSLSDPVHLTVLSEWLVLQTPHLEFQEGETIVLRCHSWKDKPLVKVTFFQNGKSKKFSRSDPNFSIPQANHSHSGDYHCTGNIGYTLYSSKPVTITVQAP


What was measured:
FcγRIIa H [1] = molecular target: T1, FcγRIIa H; experiment: ratio of He/Con_2aH to He/Con_2b (relative SPR binding to FcγRIIa H over FcγRIIb)
FcγRIIb = molecular target: T2, FcγRIIb; experiment: SPR (Biacore), antibody captured, FcγR as analyte; binding relative to GpH7-A5/GpH7-B3/GpL16-k0 = 100
FcγRIIa H [2] = molecular target: T1, FcγRIIa H; experiment: as above

He_2aH/2b (IIaH/IIb) (FcγRIIa H [1])	He/Con_2b (FcγRIIb) [control = 100]	He/Con_2aH (FcγRIIa H [2]) [control = 100]	Binder
2.52	58.2	147	GpH7-A5/GpH7-B3 variant G236_20W/GpL16-k0 (antibody, human IgG1, kappa, Heterodimerized IgG1, mutation in the GpH7-B3 chain only; also called He Ab) heavy 1: not shown heavy 2: not shown light: DIVMTQSPLSLPVTPGEPASISCQASESLVHSNRNTYLHWYLQKPGQSPQLLIYKVSNRFSGVPDRFSGSGSGTDFTLKISRVEAEDVGVYYCSQNTHVPPTFGQGTKVEIERTVAAPSVFIFPPSDEQLKSGTASVVCLLNNFYPREAKVQWKVDNALQSGNSQESVTEQDSKDSTYSLSSTLTLSKADYEKHKVYACEVTHQGLSSPVTKSFNRGEC
1.91	46.6	89.1	GpH7-A5/GpH7-B3 variant G236_19Q/GpL16-k0 (antibody, human IgG1, kappa, Heterodimerized IgG1, mutation in the GpH7-B3 chain only; also called He Ab) heavy 1: not shown heavy 2: not shown light: DIVMTQSPLSLPVTPGEPASISCQASESLVHSNRNTYLHWYLQKPGQSPQLLIYKVSNRFSGVPDRFSGSGSGTDFTLKISRVEAEDVGVYYCSQNTHVPPTFGQGTKVEIERTVAAPSVFIFPPSDEQLKSGTASVVCLLNNFYPREAKVQWKVDNALQSGNSQESVTEQDSKDSTYSLSSTLTLSKADYEKHKVYACEVTHQGLSSPVTKSFNRGEC
3.16		30.3	GpH7-A5/GpH7-B3 variant L235_12R/GpL16-k0 (antibody, human IgG1, kappa, Heterodimerized IgG1, mutation in the GpH7-B3 chain only; also called He Ab) heavy 1: not shown heavy 2: not shown light: DIVMTQSPLSLPVTPGEPASISCQASESLVHSNRNTYLHWYLQKPGQSPQLLIYKVSNRFSGVPDRFSGSGSGTDFTLKISRVEAEDVGVYYCSQNTHVPPTFGQGTKVEIERTVAAPSVFIFPPSDEQLKSGTASVVCLLNNFYPREAKVQWKVDNALQSGNSQESVTEQDSKDSTYSLSSTLTLSKADYEKHKVYACEVTHQGLSSPVTKSFNRGEC

The next lines start with the binder.

Binder	He_2aH/2b (IIaH/IIb) (FcγRIIa H [1])	He/Con_2b (FcγRIIb) [control = 100]	He/Con_2aH (FcγRIIa H [2]) [control = 100]
GpH7-A5/GpH7-B3 variant G236_07I/GpL16-k0 (antibody, human IgG1, kappa, Heterodimerized IgG1, mutation in the GpH7-B3 chain only; also called He Ab) heavy 1: not shown heavy 2: not shown light: DIVMTQSPLSLPVTPGEPASISCQASESLVHSNRNTYLHWYLQKPGQSPQLLIYKVSNRFSGVPDRFSGSGSGTDFTLKISRVEAEDVGVYYCSQNTHVPPTFGQGTKVEIERTVAAPSVFIFPPSDEQLKSGTASVVCLLNNFYPREAKVQWKVDNALQSGNSQESVTEQDSKDSTYSLSSTLTLSKADYEKHKVYACEVTHQGLSSPVTKSFNRGEC	3.72	31	115
GpH7-A5/GpH7-B3 variant G236_15Y/GpL16-k0 (antibody, human IgG1, kappa, Heterodimerized IgG1, mutation in the GpH7-B3 chain only; also called He Ab) heavy 1: not shown heavy 2: not shown light: DIVMTQSPLSLPVTPGEPASISCQASESLVHSNRNTYLHWYLQKPGQSPQLLIYKVSNRFSGVPDRFSGSGSGTDFTLKISRVEAEDVGVYYCSQNTHVPPTFGQGTKVEIERTVAAPSVFIFPPSDEQLKSGTASVVCLLNNFYPREAKVQWKVDNALQSGNSQESVTEQDSKDSTYSLSSTLTLSKADYEKHKVYACEVTHQGLSSPVTKSFNRGEC	3.45	39.5	136
GpH7-A5/GpH7-B3 variant G236_14T/GpL16-k0 (antibody, human IgG1, kappa, Heterodimerized IgG1, mutation in the GpH7-B3 chain only; also called He Ab) heavy 1: not shown heavy 2: not shown light: DIVMTQSPLSLPVTPGEPASISCQASESLVHSNRNTYLHWYLQKPGQSPQLLIYKVSNRFSGVPDRFSGSGSGTDFTLKISRVEAEDVGVYYCSQNTHVPPTFGQGTKVEIERTVAAPSVFIFPPSDEQLKSGTASVVCLLNNFYPREAKVQWKVDNALQSGNSQESVTEQDSKDSTYSLSSTLTLSKADYEKHKVYACEVTHQGLSSPVTKSFNRGEC	1.79	57.8	103
GpH7-A5/GpH7-B3 variant G236_13S/GpL16-k0 (antibody, human IgG1, kappa, Heterodimerized IgG1, mutation in the GpH7-B3 chain only; also called He Ab) heavy 1: not shown heavy 2: not shown light: DIVMTQSPLSLPVTPGEPASISCQASESLVHSNRNTYLHWYLQKPGQSPQLLIYKVSNRFSGVPDRFSGSGSGTDFTLKISRVEAEDVGVYYCSQNTHVPPTFGQGTKVEIERTVAAPSVFIFPPSDEQLKSGTASVVCLLNNFYPREAKVQWKVDNALQSGNSQESVTEQDSKDSTYSLSSTLTLSKADYEKHKVYACEVTHQGLSSPVTKSFNRGEC	1.39	96.7	135
GpH7-A5/GpH7-B3 variant G236_04F/GpL16-k0 (antibody, human IgG1, kappa, Heterodimerized IgG1, mutation in the GpH7-B3 chain only; also called He Ab) heavy 1: not shown heavy 2: not shown light: DIVMTQSPLSLPVTPGEPASISCQASESLVHSNRNTYLHWYLQKPGQSPQLLIYKVSNRFSGVPDRFSGSGSGTDFTLKISRVEAEDVGVYYCSQNTHVPPTFGQGTKVEIERTVAAPSVFIFPPSDEQLKSGTASVVCLLNNFYPREAKVQWKVDNALQSGNSQESVTEQDSKDSTYSLSSTLTLSKADYEKHKVYACEVTHQGLSSPVTKSFNRGEC	3	39.3	118
GpH7-A5/GpH7-B3 variant G236_16H/GpL16-k0 (antibody, human IgG1, kappa, Heterodimerized IgG1, mutation in the GpH7-B3 chain only; also called He Ab) heavy 1: not shown heavy 2: not shown light: DIVMTQSPLSLPVTPGEPASISCQASESLVHSNRNTYLHWYLQKPGQSPQLLIYKVSNRFSGVPDRFSGSGSGTDFTLKISRVEAEDVGVYYCSQNTHVPPTFGQGTKVEIERTVAAPSVFIFPPSDEQLKSGTASVVCLLNNFYPREAKVQWKVDNALQSGNSQESVTEQDSKDSTYSLSSTLTLSKADYEKHKVYACEVTHQGLSSPVTKSFNRGEC	3.51	27.9	98.2
